Test results published in patent US20250264471.

Biological target: Biotin-Crosstide (Anaspec)

B1: Akt1-S473E-T308P (protein)
chain: HHHHHHMDFRSGSPSDNSGAEEMEVSLAKPKHRVTMNEFEYLKLLGKGTFGKVILVKEKATGRYYAMKILKKEVIVAKDEVAHTLTENRVLQNSRHPFLTALKYSFQTHDRLCFVMEYANGGELFFHLSRERVFSEDRARFYGAEIVSALDYLHSEKNVVYRDLKLENLMLDKDGHIKITDFGLCKEGIKDGATMKTFCGTPEYLAPEVLEDNDYGRAVDWWGLGVVMYEMMCGRLPFYNQDHEKLFELILMEEIRFPRTLGPEAKSLLSGLLKKDPKQRLGGGSEDAKEIMQHRFFAGIVWQHVYEKKLSPPFKPQVTSETDTRYFDEEFTAQMITITPPDQDDSMECVDSERRPHFPQFEYSASSTA
KM (µM) (present results), peptide substrate: 9 µM
